These results are taken from patent publication US6756229B1, “Human cell line showing stable expression of cytochromes P450” (Takeda Chemical Industries, Ltd., priority 1999, dated 2004).

Substrate in series [1]: CCOc1ccc2nc3ccc(=O)cc-3oc2c1
Kind of series: Kinetic analysis, 7-ethoxyresorufin O-deethylase activity in Hepc/1A1.4. The series is classed as cell-based, human. The conditions noted are these: other: Hepc/1A1.4, Lineweaver-Burk plot, 37.0 °C. On the procedure: (§1) After 1800 μl of methanol (Wako Junyaku K. K) was added to 300 μl of the reaction solution and insoluble material was removed by centrifugation, fluorescent intensity was measured at an excited wavelength of 550 nm and a fluorescence wavelength of 586 nm using a spectrofluorometer to quantify the resorufin formed. The product purchased from Molecular Probes was used as the standard substance for resorufin (Molecular Probes).

Substrate in series [2]: CC(=O)O[C@H]1C(=O)[C@@]2(C)[C@H]([C@H](OC(=O)c3ccccc3)[C@]3(O)C[C@H](OC(=O)[C@H](O)[C@@H](NC(=O)c4ccccc4)c4ccccc4)C(C)=C1C3(C)C)[C@]1(OC(C)=O)CO[C@@H]1C[C@@H]2O
Substrate in series [3]: O=[N+]([O-])c1ccc(O)cc1
Kind of series: Kinetic analysis, p-nitrophenol hydroxylase activity in Hepc/2E1.3-8. The conditions noted are these: other: Hepc/2E1.3-8, Lineweaver-Burk plot, 37.0 °C. The series is classed as cell-based, human. The text has this: 4-Nitrocatechol purchased from Wako Junyaku K. K. was used as the standard substance.

Substrate in series [4]: CCOc1ccc2nc3ccc(=O)cc-3oc2c1
Kind of series: Kinetic analysis, 7-ethoxyresorufin O-deethylase activity in Hepc/1A2.9. The series is classed as cell-based, human. The conditions noted are these: other: Hepc/1A2.9, Lineweaver-Burk plot, 37.0 °C. On the procedure: as §1

B1: CYP1A1 (Homo sapiens) (protein)
chain: MLFPISMSATEFLLASVIFCLVFWVIRASRPQVPKGLKNPPGPWGWPLIGHMLTLGKNPHLALSRMSQQYGDVLQIRIGSTPVVVLSGLDTIRQALVRQGDDFKGRPDLYTFTLISNGQSMSFSPDSGPVWAARRRLAQNGLKSFSIASDPASSTSCYLEEHVSKEAEVLISTLQELMAGPGHFNPYRYVVVSVTNVICAICFGRRYDHNHQELLSLVNLNNNFGEVVGSGNPADFIPILRYLPNPSLNAFKDLNEKFYSFMQKMVKEHYKTFEKGHIRDITDSLIEHCQEKQLDENANVQLSDEKIINIVLDLFGAGFDTVTTAISWSLMYLVMNPRVQRKIQEELDTVIGRSRRPRLSDRSHLPYMEAFILETFRHSSFVPFTIPHSTTRDTSLKGFYIPKGRCVFVNQWQINHDQKLWVNPSEFLPERFLTPDGAIDKVLSEKVIIFGMGKRKCIGETIARWEVFLFLAILLQRVEFSVPLGVKVDMTPIYGLTMKHACCEHFQMQLRS
notes: expressed in transfected cells
Broadly, the Km is the substrate concentration at which the rate is half of its maximum. As a reminder, the Vmax is the top rate of the reaction or transport when substrate is in excess. B1: in series [1], the Km turned out to be 0.25 µM and the Vmax was determined as 5.6e-05 µmol/min/mg.

B2: CYP2C8 (Homo sapiens) (protein)
chain: MEPFVVLVLCLSFMLLFSLWRQSCRRRKLPPGPTPLPIIGNMLQIDVKDICKSFTNFSKVYGPVFTVYFGMNPIVVFHGYEAVKEALIDNGEEFSGRGNSPISQRITKGLGIISSNGKRWKEIRRFSLTTLRNFGMGKRSIEDRVQEEAHCLVEELRKTKASPCDPTFILGCAPCNVICSVVFQKRFDYKDQNFLTLMKRFNENFRILNSPWIQVCNNFPLLIDCFPGTHNKVLKNVALTRSYIREKVKEHQASLDVNNPRDFIDCFLIKMEQEKDNQKSEFNIENLVGTVADLFVAGTETTSTTLRYGLLLLLKHPEVTAKVQEEIDHVIGRHRSPCMQDRSHMPYTDAVVHEIQRYSDLVPTGVPHAVTTDTKFRNYLIPKGTTIMALLTSVLHDDKEFPNPNIFDPGHFLDKNGNFKKSDYFMPFSAGKRICAGEGLARMELFLFLTTILQNFNLKSVDDLKNLNTTAVTKGIVSLPPSYQICFIPV
Regarding B2, in series [2], the Michaelis-Menten constant (Km) came to 7.4 µM and the Vmax amounted to 9e-09 µmol/min/mg.

B3: CYP2E1 (Homo sapiens) (protein)
chain: MSALGVTVALLVWAAFLLLVSMWRQVHSSWNLPPGPFPLPIIGNLFQLELKNIPKSFTRLAQRFGPVFTLYVGSQRMVVMHGYKAVKEALLDYKDEFSGRGDLPAFHAHRDRGIIFNNGPTWKDIRRFSLTTLRNYGMGKQGNESRIQREAHFLLEALRKTQGQPFDPTFLIGCAPCNVIADILFRKHFDYNDEKFLRLMYLFNENFHLLSTPWLQLYNNFPSFLHYLPGSHRKVIKNVAEVKEYVSERVKEHHQSLDPNCPRDLTDCLLVEMEKEKHSAERLYTMDGITVTVADLFFAGTETTSTTLRYGLLILMKYPEIEEKLHEEIDRVIGPSRIPAIKDRQEMPYMDAVVHEIQRFITLVPSNLPHEATRDTIFRGYLIPKGTVVVPTLDSVLYDNQEFPDPEKFKPEHFLNENGKFKYSDYFKPFSTGKRVCAGEGLARMELFLLLCAILQHFNLKPLVDPKDIDLSPIHIGFGCIPPRYKLCVIPRS
notes: as for B1
In the case of B3, in series [3], the Michaelis constant (Km) came out at 88 µM and the maximal velocity (Vmax) worked out at 0.00012 µmol/min/mg.

B4: CYP1A2 (Homo sapiens) (protein)
chain: MALSQSVPFSATELLLASAIFCLVFWVLKGLRPRVPKGLKSPPEPWGWPLLGHVLTLGKNPHLALSRMSQRYGDVLQIRIGSTPVLVLSRLDTIRQALVRQGDDFKGRPDLYTSTLITDGQSLTFSTDSGPVWAARRRLAQNALNTFSIASDPASSSSCYLEEHVSKEAKALISRLQELMAGPGHFDPYNQVVVSVANVIGAMCFGQHFPESSDEMLSLVKNTHEFVETASSGNPLDFFPILRYLPNPALQRFKAFNQRFLWFLQKTVQEHYQDFDKNSVRDITGALFKHSKKGPRASGNLIPQEKIVNLVNDIFGAGFDTVTTAISWSLMYLVTKPEIQRKIQKELDTVIGRERRPRLSDRPQLPYLEAFILETFRHSSFLPFTIPHSTTRDTTLNGFYIPKKCCVFVNQWQVNHDPELWEDPSEFRPERFLTADGTAINKPLSEKMMLFGMGKRRCIGEVLAKWEIFLFLAILLQQLEFSVPPGVKVDLTPIYGLTMKHARCEHVQARLRFSIN
notes: as for B1
With B4, in series [4], the Km is 0.72 µM and the maximum rate (Vmax) was 1.6e-06 µmol/min/mg.
